# Measurements reported in patent US20250277030A1, “ANTI-NAPI2B ANTIBODIES AND METHODS OF USE” (Zymeworks BC Inc., priority 2022, published 2025).
# T1: mouse NaPi2b (Mus musculus, UniProt Q9DBP0)
# T1 construct: expressed in transfected cells; host or cells: HEK293-6e
# T1 sequence (Q9DBP0 1-697): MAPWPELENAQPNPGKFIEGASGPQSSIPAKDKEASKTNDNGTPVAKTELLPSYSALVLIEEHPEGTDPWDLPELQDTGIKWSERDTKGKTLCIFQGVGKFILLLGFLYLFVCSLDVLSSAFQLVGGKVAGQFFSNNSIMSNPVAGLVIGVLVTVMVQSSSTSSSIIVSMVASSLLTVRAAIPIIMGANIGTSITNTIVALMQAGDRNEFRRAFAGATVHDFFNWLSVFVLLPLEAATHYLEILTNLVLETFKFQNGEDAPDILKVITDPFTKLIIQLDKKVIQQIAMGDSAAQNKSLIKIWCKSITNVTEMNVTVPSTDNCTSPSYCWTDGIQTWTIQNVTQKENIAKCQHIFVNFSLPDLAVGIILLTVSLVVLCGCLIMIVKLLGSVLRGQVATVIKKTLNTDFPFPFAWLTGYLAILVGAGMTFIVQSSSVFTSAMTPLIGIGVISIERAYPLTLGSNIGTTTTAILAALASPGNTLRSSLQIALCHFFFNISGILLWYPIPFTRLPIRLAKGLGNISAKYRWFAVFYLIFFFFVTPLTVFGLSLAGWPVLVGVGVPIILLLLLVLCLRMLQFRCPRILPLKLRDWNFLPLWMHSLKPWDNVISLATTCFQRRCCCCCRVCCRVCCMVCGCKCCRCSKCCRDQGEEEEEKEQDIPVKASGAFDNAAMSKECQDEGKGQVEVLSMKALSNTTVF
# B1: v29456: humanized anti-NaPi2b IgG1/kappa antibody H1L2; VH SEQ ID NO:24, VL SEQ ID NO:29 (antibody, V domains shown)
# VH: QVQLVQSGAEVKKPGASVKVSCKASGFTFTSYNVHWVRQAPGQGLEWMGAISPGNGDLSYAQKFQGRVTMTRDTSTSTVYMELSSLRSEDTAVYYCARGRTGMGAVDYWGQGTLVTVSS
# VL: DVQMTQSPSSLSASVGDRVTITCRASQDVYSYLNWYQQKPGKAVKLLIYYTSRLQSGVPSRFSGSGSGTDYTLTISSLQPEDFATYYCQQYNIFPWTFGQGTKLEIK
# modifications: v29452, v29456, v29460 VH (H1); v29453, v29454, v29455, v29456 VL (L2)
# What was measured:
# NCI-H441 cells = experiment: Internalization by flow cytometry in NCI-H441 cells; type: cell-based, human; settings: antibody 10 nM
# Method: Briefly, antibodies were fluorescently labeled by coupling to a Fab fragment AF488 conjugate targeting anti-Human IgG Fe (Jackson Immuno Research Labs, West Grove, PA; Cat. No. 109-547-008) at a 1:1 molar ratio in PBS pH 7.4 (Thermo Fisher Scientific, Waltham, MA; Cat. No. 10010-023), for 24 hours at 4° C. Cells were seeded at 50,000 cells/well in RPMI 1640, ATCC modification (Thermo Fisher Scientific, Waltham, MA) supplemented with 10% fetal bovine serum (Thermo Fisher Scientific, Waltham, MA) in 48-well plates and incubated overnight under standard culturing conditions (37° C./5% CO2) to allow attachment. […] Following incubation, cells were dissociated, washed, and surface AF488 fluorescence was quenched using an anti-AF488 antibody (Life Technologies, Carlsbad, CA; Cat. No. A-11094) at 100 nM for 30 minutes at 4° C. […] (internalized fluorescence) was detected by flow cytometry on a BD LSRFortessa™ Cell Analyzer (BD Biosciences, Franklin Lake, NJ) with 1,000 minimum events collected per well. The AF488/FITC-A GeoMean (fluorescence signal geometric mean, proportional to anti-Human Fab AF488 labelling) was calculated for the live single cell population using FlowJo™ Version 10.8.1 (BD Biosciences, Franklin Lake, NJ) and plotted using GraphPad Prism Version 9 (GraphPad Software, San Diego, CA).
# mouse NaPi2b = target: T1, mouse NaPi2b; experiment: Flow cytometry binding to HEK293-6e cells transfected with mouse NaPi2b (Example 5); settings: transfected HEK293-6e cells, 18-24 hours at 4° C.
# Method: (§1) The binding cross-reactivity of humanized antibody variant v29456 to human, cynomolgus and mouse NaPi2b was assessed by flow cytometry using HEK293-6e transfected cells.
# (§2) Briefly, HEK293-6e cells were transfected for ˜24 hours to transiently express human NaPi2b, cynomolgus or mouse NaPi2b, at 1 μg of DNA per 1 million cells. Following transfection, 50,000 cells per well were seeded in V-bottom 96-well plates and incubated with 200 nM of primary antibody for 18-24 hours at 4° C. to prevent internalization. Post-incubation, cells were washed and stained with anti-Human IgG Fc AF647 conjugate (Jackson Immuno Research Labs, West Grove, PA, Cat. No. 109-605-098, Lot. No. 124868) at 4° C. for 1 hour. Following staining and washing, fluorescence was detected by flow cytometry on BD LSRFortessa™ Cell Analyzer (BD Biosciences, Franklin Lake, NJ) with 10,000 minimum events collected per well. The AF647/APC-A GeoMean (fluorescence signal geometric mean, proportional to anti-Human AF647 binding) was calculated for the live singlet cell population for each primary antibody using FlowJo™ v8 software (BD Biosciences, Franklin Lake, NJ). The Bmax and Kd of each primary antibody were calculated using GraphPad Prism Version 9 (GraphPad Software, San Diego, CA)
# cynomolgus NaPi2b = experiment: Flow cytometry binding to HEK293-6e cells transfected with cynomolgus NaPi2b (Example 5); settings: transfected HEK293-6e cells
# Chain of cynomolgus NaPi2b (as listed by the source): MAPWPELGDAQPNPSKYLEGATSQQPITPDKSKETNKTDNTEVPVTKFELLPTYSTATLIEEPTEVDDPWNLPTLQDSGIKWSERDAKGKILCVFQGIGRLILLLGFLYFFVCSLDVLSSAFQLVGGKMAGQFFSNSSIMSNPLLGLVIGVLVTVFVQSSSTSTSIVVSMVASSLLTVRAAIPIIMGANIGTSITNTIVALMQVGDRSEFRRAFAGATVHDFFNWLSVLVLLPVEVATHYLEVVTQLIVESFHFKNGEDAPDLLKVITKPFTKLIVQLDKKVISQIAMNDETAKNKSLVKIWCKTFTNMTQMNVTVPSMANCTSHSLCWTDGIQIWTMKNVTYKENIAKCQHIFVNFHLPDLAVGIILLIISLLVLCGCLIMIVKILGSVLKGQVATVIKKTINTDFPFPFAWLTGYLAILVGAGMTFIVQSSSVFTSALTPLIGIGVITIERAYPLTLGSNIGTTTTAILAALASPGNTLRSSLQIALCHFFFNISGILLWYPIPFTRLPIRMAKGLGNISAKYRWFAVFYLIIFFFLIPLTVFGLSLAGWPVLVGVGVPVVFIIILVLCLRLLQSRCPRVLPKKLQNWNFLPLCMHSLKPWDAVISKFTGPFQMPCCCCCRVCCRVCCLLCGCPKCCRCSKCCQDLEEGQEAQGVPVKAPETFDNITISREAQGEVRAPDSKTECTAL
# Method: as §1, §2
molecule,measurement,setting,value
B1,Internalized Fluorescence Fold-Over Palivizumab,"NCI-H441 cells; NCI-H441, 5 hrs",2.4 fold
same,Internalized Fluorescence Fold-Over Palivizumab,"NCI-H441 cells; NCI-H441, 24 hrs",4.0 fold
same,"Bmax (APC-A GeoMean), Ms NaPi2b",mouse NaPi2b,"2,062 APC-A GeoMean"
same,Kd,"mouse NaPi2b; highest antibody concentration 200 nM, read-out: Apparent Kd (nM), Ms NaPi2b",10.6 nM
same,"apparent Kd on cynomolgus NaPi2b, fold lower than v18992 (MX35)",cynomolgus NaPi2b,10 fold
same,"Bmax (APC-A GeoMean), Cyno NaPi2b",cynomolgus NaPi2b; 18-24 hours at 4° C.,"2,006 APC-A GeoMean"
same,Kd,"cynomolgus NaPi2b; 18-24 hours at 4° C., highest antibody concentration 200 nM, read-out: Apparent Kd (nM), Cyno NaPi2b",3.2 nM
